From PMC12056068 (Nature Communications, 2025)

Columns and labels:
GST-SUVH3 = target: T1, GST-SUVH3 (Arabidopsis thaliana, UniProt Q9C5P4 1-669); experiment: pull-down
T1 sequence (looked up): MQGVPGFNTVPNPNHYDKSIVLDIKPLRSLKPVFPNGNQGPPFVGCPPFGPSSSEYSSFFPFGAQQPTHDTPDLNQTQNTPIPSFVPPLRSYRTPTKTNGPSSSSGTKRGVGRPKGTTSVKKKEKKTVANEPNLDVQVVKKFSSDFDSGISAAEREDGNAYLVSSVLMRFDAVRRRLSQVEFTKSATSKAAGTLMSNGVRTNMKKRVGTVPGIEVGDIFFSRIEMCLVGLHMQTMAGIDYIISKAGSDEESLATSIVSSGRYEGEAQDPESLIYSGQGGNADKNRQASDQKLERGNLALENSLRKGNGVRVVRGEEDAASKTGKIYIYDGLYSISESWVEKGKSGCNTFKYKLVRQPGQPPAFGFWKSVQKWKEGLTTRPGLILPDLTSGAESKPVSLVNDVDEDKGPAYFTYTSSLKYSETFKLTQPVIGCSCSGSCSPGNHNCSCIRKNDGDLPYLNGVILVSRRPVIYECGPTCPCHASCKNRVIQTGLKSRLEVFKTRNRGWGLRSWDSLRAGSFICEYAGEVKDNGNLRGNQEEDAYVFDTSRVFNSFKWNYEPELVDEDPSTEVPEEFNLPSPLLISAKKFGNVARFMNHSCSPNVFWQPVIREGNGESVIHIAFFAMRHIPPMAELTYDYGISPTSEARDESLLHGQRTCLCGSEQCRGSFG

SUVH1 = target: T2, SUVH1 (Arabidopsis thaliana, UniProt Q9FF80 1-670); experiment: pull-down
T2 sequence (looked up): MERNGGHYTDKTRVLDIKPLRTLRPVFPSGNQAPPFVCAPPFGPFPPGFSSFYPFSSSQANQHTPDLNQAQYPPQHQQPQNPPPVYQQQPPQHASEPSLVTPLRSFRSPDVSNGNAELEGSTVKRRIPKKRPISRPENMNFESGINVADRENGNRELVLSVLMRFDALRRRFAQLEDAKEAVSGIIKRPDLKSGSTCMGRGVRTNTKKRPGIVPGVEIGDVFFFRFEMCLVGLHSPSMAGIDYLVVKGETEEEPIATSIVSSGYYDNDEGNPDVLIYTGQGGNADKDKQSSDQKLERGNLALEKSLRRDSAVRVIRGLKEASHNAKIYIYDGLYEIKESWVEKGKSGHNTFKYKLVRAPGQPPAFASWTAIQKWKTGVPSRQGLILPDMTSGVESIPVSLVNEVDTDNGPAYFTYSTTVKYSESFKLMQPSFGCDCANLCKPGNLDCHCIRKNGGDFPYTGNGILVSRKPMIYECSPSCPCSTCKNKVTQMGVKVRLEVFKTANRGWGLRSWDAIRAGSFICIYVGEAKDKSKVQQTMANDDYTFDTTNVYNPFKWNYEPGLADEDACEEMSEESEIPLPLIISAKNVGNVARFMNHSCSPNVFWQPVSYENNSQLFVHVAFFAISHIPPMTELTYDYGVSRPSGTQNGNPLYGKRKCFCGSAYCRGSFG

- binding result (GST-SUVH3): binds
- binding result (SUVH1): binds
B1: His-LEC2 (natural protein, Arabidopsis thaliana, UniProt Q1PFR7 1-363, looked up)
chain: MDNFLPFPSSNANSVQELSMDPNNNRSHFTTVPTYDHHQAQPHHFLPPFSYPVEQMAAVMNPQPVYLSECYPQIPVTQTGSEFGSLVGNPCLWQERGGFLDPRMTKMARINRKNAMMRSRNNSSPNSSPSELVDSKRQLMMLNLKNNVQISDKKDSYQQSTFDNKKLRVLCEKELKNSDVGSLGRIVLPKRDAEANLPKLSDKEGIVVQMRDVFSMQSWSFKYKFWSNNKSRMYVLENTGEFVKQNGAEIGDFLTIYEDESKNLYFAMNGNSGKQNEGRENESRERNHYEEAMLDYIPRDEEEASIAMLIGNLNDHYPIPNDLMDLTTDLQHHQATSSSMPPEDHAYVGSSDDQVSFNDFEWW
